Experimental data reported in patent publication EP4269437A1.

What was measured:
PD-1 [1] = biological target: PD-1 (UniProt Q15116); assay: ELISA, TG1 supernatant on coated PD-1, anti-c-myc HRP
PD-1 [2] = biological target: PD-1 (UniProt Q15116); assay: blocking ELISA, clone supernatant, competitor PD-L1.hFc detected with anti-human Fc HRP

Chain of PD-1 (Q15116 25-170 limits assumed): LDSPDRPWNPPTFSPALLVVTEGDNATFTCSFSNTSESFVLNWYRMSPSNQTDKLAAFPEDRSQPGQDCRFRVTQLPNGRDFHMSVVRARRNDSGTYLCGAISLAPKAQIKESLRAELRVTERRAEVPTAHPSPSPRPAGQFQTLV

OD450, clone binding with PD-1 (PD-1 [1]) [OD450]	OD450, PD-L1 binding with PD-1 (PD-1 [2]) [OD450]	Binder
2.97	0.794	NB173 (VHH) VHH: QVQLQESGGGLVQAGGSLRLSCAASGRSFNSYAMGWFRQAPGKEREFVAAISQNGGTQGYAEAVKDRFTISRDNTNKVVALQMNSLKPEDTAAYYCAADGDASDISYAPPRDYEYDYWGQGTQVTVSS
2.31	2.48	NB200 (VHH) VHH: QVQLVESGGGLVQAGGSLTLSCAASGRTFNSYAMGWFRQAPGKEREFVAAISQNGGSQGYAEAVKDRFTISRDNTNKVVALQMNSLKPEDTAAYYCAADGDASDRSYAPPRDYEYEYWGQGTQVTVSS
2.65	2.24	NB192 (VHH) VHH: EVQLVESGGGLVQAGGSLRLSCAASGRTFNGYGMGWFRQAPGKEREFVAAISWRDSSKYYADSVRDRFTASRDNAKNTVYLQMNSLKPEDTAVYYCRPYSDYVTYDPYDYDAWGQGTQVTVSS
2.78	0.715	NB171 (VHH) VHH: QVQLVESGGGLVQAGGSLRLSCAASGRTFSSYAMGWFRQALGKEREWIAGVSMSGRTTYYAAPVKDRFTISRDNAKNTVTLQMNSLKPEDTAVYYCAAGRAQAEIPIMRAQEYDSWGQGTQVTVSS
1.7	2.2	NB755 (VHH) VHH: QVQLVESGGGLVQAGGSLRLSCVDSGRTFSSYGMGWFRQAPGKEREFVAAVNWRNTTAYYADSAKDRFTISSDNAKNTVYLQMASLKPEDTGVYYCRPYSDYVSYDPTEYDSWGQGTQVTVSS
3.29	2.05	NB153 (VHH) VHH: DVQLQESGGGLVQAGGSLRVSCAASGRTFSSYGMGWFRQAPGKERELVAAITNTGLTYYADSVEGRFTISRDAAKNTVYLQMNSLEPEDTAVYYCNAGAPPPGGLGYDESDYWGQGTLVTVSS
2.84	2.56	NB148 (VHH) VHH: QVQLVESGGGLVQAGGSLRLSCAASGGTFSGSELGWFRQAPGKEREFVAGISRNGGTTGYSDSVKDRFTIARDNAKNTVYLQMNSLKPEDTAVYYCAAGLRAYYGDSYVDTMTENYNYWGQGTQVTVSS
2.62	2.25	NB221 (VHH) VHH: EVQLVESGGGLVQAGDSLRLSCAASGRTFSSVAMGWFRQAPGKEREFVAAISRSGGSAGYADSVKDRSTIARDNTKNTVYLQMNSLKPEDTAVYFCAASEYDFCSTHGCYDYWGQGTQVTISL
2.61	2.28	NB154 (VHH) VHH: QVQLVESGGGLVQAGDSLRLSCAASGGTFSGYGMGWFRQAPGKEREFVAGISRHGGSTGYSSSVKDRFTISRDNAKNTVDLQMNSLKPEDTAVYHCAAALRPDYGDSYVYTSTSNYEYWGQGTQVTVSS
3.13	2.23	NB222 (VHH) VHH: QVQLVESGGGLVQAGGSLRLSCAASGGTFSNFNVGWFRQAPGKEREFVAASNWSAGTTHYSDSVKGRFTISRDNAANTAYLQMNSLRPDDTAVYYCNRVIRGTTYPDVYYGMDYWGKGTLVTVSS
1.81	2.44	NB735 (VHH) VHH: EVQVVESGGGLVQPGGSLTLSCAVSGFTLDDYSIGWFRQAPGRAREAVSCTSNRDGSTYYEDSVKGRFTISRDNAKNTVYLQMNSLKPEDTAVYRCSTDCSLYGSTYSPDYWGQGTQVIVSS
2.97	2.34	NB189 (VHH) VHH: QVKLEESGGGLVQAGGSLRLSCTASGGTFNSYAMGWFRQAPGKERESVAAINLSRGNTYYADSVKGRFTISRDNAKNTVYLQMNSLKPEDTAVYHCGVDRRQYGLGIPPLADHWGQGTQVTVSS
3.05	2.17	NB172 (VHH) VHH: EVQLVESGGGLVQAGGSLRLSCTASGDTRLASAMGWYRQAPGKERELVAVITNSGLTHYADSVEGRFTISRDSAKNTVYLQMNSLKPEDTAVYYCNAGAPPPGGLGYDESDYWDQGTQVTVSS
1.36	2.19	NB532 (VHH) VHH: QVQLVETGGGLVQAGGSLRLSCAASGRTFSSYNMGWFRQAPGKEREFVAAISWSGGSQGYAAAVKDRFTISRDNAKNTVYLQMNSLKAEDTAVYYCAAKYHSGSYYYTSIRPEEYDYWGQGTQVTVSS
1.3	2.25	NB223 (VHH) VHH: EVQLVESGGGLVQAGGSLRLSCAASGRTFSSYGMGWFRQAPGKEREFVAAVNWSNSSAYYADSVKDRFTISSDNAKSTIYLQMNSLKPEDTAVYYCRPYSDYVTYDPDDYDYWGQGTQVTVSS
2.84	2	NB164 (VHH) VHH: QVQLVESGGGLLQAGDSLRLSCIASGRTFSSYAMGWFRQAPGKEREFVAGINGNGRSQYYAEVVKDRFFISRDNAKNTVYLQMNSLKPEDTAVYYCAAEGHLGVPTVRSDEYDYWGQGTQVTVSS
2.9	2.13	NB169 (VHH) VHH: QVQLVESGGGLVPPGGSLRLSCAASGFTFSSYPMSWYRQAPGRKRDFVAMLTGAGGSTDYADSVKGRFTISRDNAKNTVYLQMNSLKPEDTAVYYCNAPAAMRDYGIDYWGKGTLVNVSS
1.03	2.47	NB733 (VHH) VHH: QVQLVESGGGLVQPGASLRLSCAAAGFTFSSWAMTWVRQAPGKGLEWVSAISSGSGEMADYADSVKGRFAISRDNAKNTLYLQMNNLQPEDTAMYYCAKGGYLTYANLGPGTQVTVSS
2.63	0.994	NB147 (VHH) VHH: EVQVVESGGGVVQAGDSLRLSCVASGRTFSSVAMGWFRQAPGKEREFVAAISRSGGSAGYSDSVKDRSTISRDNAKNTVYLQMNSLKPEDTAVYFCAASELDFCSTLGCYDYWGQGIQVTFSS
2.66	2.27	NB197 (VHH) VHH: QVQLQESGGGLVQPGGSLRLSCAASGFTLDDHSIGWFRQAPGKEREPVSCISTSDGRTYYEDSVKGRFTISRDKAKNTVYLQMDSLKPEDTAVYYCTTDVACYSDYDPSFRFWGQGTQVTVSS
2.17	1.42	NB734 (VHH) VHH: QVQLVETGGGLVQAGGSLRLSCAASGDTILFSAVGWHRQAPGKERELVAAITNSGVTYYADSVKGRFSISRDNAKNTVYLQMNSLKPEDTAVYYCNAGAPPPGEFGYDESDYWGQGTQVTVSS
3.39	2.49	NB196 (VHH) VHH: QVQLVETGGGLVQAGGSLRLSCTASGDTNLFSAMGWHRQAPGKERELVAAITNSGMTYYADVVKGRFTLSRDNAKNTVYLQMNSLKPEDTAVYYCNAGAPPPGGFGYDESDYWGQGTQVTVSS
2.13	2.43	NB548 (VHH) VHH: QLQLVESGGGLVQPGGSLRLSCTANGFSVGDYSMSWHRQPPGKEREVVATTARDSGSTFYAASVKGRFTISRDNAKNTVYLQMNSLKPEDTGVYYCRVNSQDYWGQGTQVTVSS
2.7	2.02	NB170 (VHH) VHH: EVQLVESGGGLVQAGDSLRLSCAASGGTFGRLETGWFRQAPGKEREFVAAISWDGETSYADSVKGRFTISRDNAKNTMALQMNRLTPEDTAVYFCAARVILRAYKYWGQGTQVTVSS
3.12	2.39	NB139 (VHH) VHH: EVQVVESGGGLVQTGGSLRLSCAASGDTALISAMGWYRQAPGKERELVAALTNTGITYYADSVKGRFTISRDNAKNTVYLQMNSLKPEDTAVYYCNAGAPPPGGLGYDESDYWGQGTQVTVSS
1.84	2.1	NB159 (VHH) VHH: QVQLVESGGGSVQAGDSLRISCEASGRTFMRYSMGWFRQASGKEREFVAAISWGGSSTYYADSVKGRFIISRDNTKNTVFLQMNSLKPEDTAVYYCAADTNPSGSWDRPTNEAEYDYWGQGTQVTVSS
3.39	2.29	NB166 (VHH) VHH: EVQVQESGGGLVQAGGSLTLSCAASGDTILISSIGWYRQAPGKERELVAAITNSGLTYYPDSVKGRFTISRDNAKNTVYLQMNNLKPEDTAVYYCNAGGPPPGGLGYDESDYWGQGTQVTVSS
3.13	2.24	NB195 (VHH) VHH: EVQVVESGGGLVQAGGSLRLSCAASGDTILISAIGWYRQAPGKVRELVAAITNSGVTYYTDSVKGRFTISRDNAKNTVYLQMDSLKPEDTAVYYCNAGGPPPGGLGYDESDYWGPGTHVTVSS
2.04	2.37	NB754 (VHH) VHH: QLQLVESGGGLVQPGGSLRLSCAVSGFTFSSDAMNWYRQAPGKERELVASITIDGGSTNYADSVKGRFTISRDNAKNTLYLQMNSLKPEDTAVYYCNADRGIIIYGKTYWGQGTQVTVSS
